Laboratory results taken from patent US20260098059A1 (ENDOMET BIOSCIENCES, published 2026).
Where “and” joins values, the source holds several entries; their conditions need not be identical. Equal entries are not always repeated. Bridges are numbered along the chain shown (N, C = ends). Where no end group is shown, it is not given here. [ ]: non-standard residue; d: D form. The star is where a group is joined. NMeW = CN[C@@H](Cc1c[nH]c2ccccc12)C(=O)O; Chg = N[C@H](C(=O)O)C1CCCCC1; Lauroyl = CCCCCCCCCCCC(=O)*; αMeS = C[C@](N)(CO)C(=O)O; NMeA = CN[C@@H](C)C(=O)O

B1: SEQ ID NO: 447 (peptide)
peptide: WAQKILDEHGQRVW
HELM: PEPTIDE1{[CCCCCCCCCCCC(=O)[*:2]].W.[meA].Q.K.I.L.D.E.H.[O=C([C@@H](N[*:1])C1CCCCC1)[*:2]].Q.R.V.W.[am]}$PEPTIDE1,PEPTIDE1,5:R3-9:R3$$$V2.0
SMILES: CCCCCCCCCCCC(=O)N[C@@H](Cc1c[nH]c2ccccc12)C(=O)N(C)[C@@H](C)C(=O)N[C@@H](CCC(N)=O)C(=O)N[C@H]1CCCCNC(=O)CC[C@@H](C(=O)N[C@@H](Cc2c[nH]cn2)C(=O)N[C@H](C(=O)N[C@@H](CCC(N)=O)C(=O)N[C@@H](CCCNC(=N)N)C(=O)N[C@H](C(=O)N[C@@H](Cc2c[nH]c3ccccc23)C(N)=O)C(C)C)C2CCCCC2)NC(=O)[C@H](CC(=O)O)NC(=O)[C@H](CC(C)C)NC(=O)[C@H]([C@@H](C)CC)NC1=O
B2: SEQ ID NO: 40 (peptide)
peptide: H-W[NMeW]E[αMeS]ILDEHVQRVWG-NH2
B3: SEQ ID NO: 452 (peptide)
peptide: WAQKILNDHGQAV
HELM: PEPTIDE1{[ac].W.[meA].Q.K.I.L.N.D.H.[O=C([C@@H](N[*:1])C1CCCCC1)[*:2]].Q.A.V.[am]}$PEPTIDE1,PEPTIDE1,5:R3-9:R3$$$V2.0
SMILES: CC[C@H](C)[C@@H]1NC(=O)[C@@H](NC(=O)[C@H](CCC(N)=O)NC(=O)[C@H](C)N(C)C(=O)[C@H](Cc2c[nH]c3ccccc23)NC(C)=O)CCCCNC(=O)C[C@@H](C(=O)N[C@@H](Cc2c[nH]cn2)C(=O)N[C@H](C(=O)N[C@@H](CCC(N)=O)C(=O)N[C@@H](C)C(=O)N[C@H](C(N)=O)C(C)C)C2CCCCC2)NC(=O)[C@H](CC(N)=O)NC(=O)[C@H](CC(C)C)NC1=O
B4: SEQ ID NO: 461 (peptide)
peptide: Lauroyl-W[NMeA]QSILDKH[Chg]QDVW-NH2
modifications: lactam 8-12; not fully specified; printed as Lauroyl-NH-W-NMeA-QSILDK*H-Chg-QD*VW-NH2
B5: SEQ ID NO: 441 (peptide)
peptide: WAQKILDEHGQRVWG
HELM: PEPTIDE1{[ac].W.A.Q.K.I.L.D.E.H.[O=C([C@@H](N[*:1])C1CCCCC1)[*:2]].Q.R.V.W.G.[am]}$PEPTIDE1,PEPTIDE1,5:R3-9:R3$$$V2.0
SMILES: CC[C@H](C)[C@@H]1NC(=O)[C@@H](NC(=O)[C@H](CCC(N)=O)NC(=O)[C@H](C)NC(=O)[C@H](Cc2c[nH]c3ccccc23)NC(C)=O)CCCCNC(=O)CC[C@@H](C(=O)N[C@@H](Cc2c[nH]cn2)C(=O)N[C@H](C(=O)N[C@@H](CCC(N)=O)C(=O)N[C@@H](CCCNC(=N)N)C(=O)N[C@H](C(=O)N[C@@H](Cc2c[nH]c3ccccc23)C(=O)NCC(N)=O)C(C)C)C2CCCCC2)NC(=O)[C@H](CC(=O)O)NC(=O)[C@H](CC(C)C)NC1=O
B6: SEQ ID NO: 443 (peptide)
peptide: WXQKILDEHGQRVWG
HELM: PEPTIDE1{[ac].W.[Aib].Q.K.I.L.D.E.H.[O=C([C@@H](N[*:1])C1CCCCC1)[*:2]].Q.R.V.W.G.[am]}$PEPTIDE1,PEPTIDE1,5:R3-9:R3$$$V2.0
SMILES: CC[C@H](C)[C@@H]1NC(=O)[C@@H](NC(=O)[C@H](CCC(N)=O)NC(=O)C(C)(C)NC(=O)[C@H](Cc2c[nH]c3ccccc23)NC(C)=O)CCCCNC(=O)CC[C@@H](C(=O)N[C@@H](Cc2c[nH]cn2)C(=O)N[C@H](C(=O)N[C@@H](CCC(N)=O)C(=O)N[C@@H](CCCNC(=N)N)C(=O)N[C@H](C(=O)N[C@@H](Cc2c[nH]c3ccccc23)C(=O)NCC(N)=O)C(C)C)C2CCCCC2)NC(=O)[C@H](CC(=O)O)NC(=O)[C@H](CC(C)C)NC1=O
B7: SEQ ID NO: 439 (peptide)
peptide: W[NMeA]QSILDEHVQKVWG-NH2
modifications: lactam 8-12; not fully specified (N-terminus); printed as H23C11C(O)NH-W-NmeA-QSILDE*HVQK*VWG-NH2
B8: SEQ ID NO: 473 (peptide)
peptide: WPQSILDEHGQKVWG
modifications: not fully specified; Lauroyl-NH-WPQSILDE*H-Chg-QK*VWG-NH2
B9: SEQ ID NO: 472 (peptide)
peptide: WPQSILDEHGQKVWG
modifications: not fully specified; Ac-NH-WPQSILDE*H-Chg-QK*VWG-NH2
B10: SEQ ID NO: 444 (peptide)
peptide: EDPQKILDEHLQRVLK
modifications: not fully specified; H23C11C(O)NH-EDPQK*ILDE*HLQRVLK-NH2
B11: SEQ ID NO: 445 (peptide)
peptide: AQKILDEHGQRVW
HELM: PEPTIDE1{[ac].[meA].Q.K.I.L.D.E.H.[O=C([C@@H](N[*:1])C1CCCCC1)[*:2]].Q.R.V.W.[am]}$PEPTIDE1,PEPTIDE1,4:R3-8:R3$$$V2.0
SMILES: CC[C@H](C)[C@@H]1NC(=O)[C@@H](NC(=O)[C@H](CCC(N)=O)NC(=O)[C@H](C)N(C)C(C)=O)CCCCNC(=O)CC[C@@H](C(=O)N[C@@H](Cc2c[nH]cn2)C(=O)N[C@H](C(=O)N[C@@H](CCC(N)=O)C(=O)N[C@@H](CCCNC(=N)N)C(=O)N[C@H](C(=O)N[C@@H](Cc2c[nH]c3ccccc23)C(N)=O)C(C)C)C2CCCCC2)NC(=O)[C@H](CC(=O)O)NC(=O)[C@H](CC(C)C)NC1=O
B12: SEQ ID NO: 66 (peptide)
peptide: H-MSRMWYLISFWG-OH
B13: SEQ ID NO: 69 (peptide)
peptide: H-MSRMWFLISFRG-OH
B14: SEQ ID NO: 440 (peptide)
peptide: QKILDEHGQRVWG
HELM: PEPTIDE1{[ac].Q.K.I.L.D.E.H.[O=C([C@@H](N[*:1])C1CCCCC1)[*:2]].Q.R.V.W.G.[am]}$PEPTIDE1,PEPTIDE1,3:R3-7:R3$$$V2.0
SMILES: CC[C@H](C)[C@@H]1NC(=O)[C@@H](NC(=O)[C@H](CCC(N)=O)NC(C)=O)CCCCNC(=O)CC[C@@H](C(=O)N[C@@H](Cc2c[nH]cn2)C(=O)N[C@H](C(=O)N[C@@H](CCC(N)=O)C(=O)N[C@@H](CCCNC(=N)N)C(=O)N[C@H](C(=O)N[C@@H](Cc2c[nH]c3ccccc23)C(=O)NCC(N)=O)C(C)C)C2CCCCC2)NC(=O)[C@H](CC(=O)O)NC(=O)[C@H](CC(C)C)NC1=O
B15: SEQ ID NO: 442 (peptide)
peptide: WXQKILDEHGQRVWG
HELM: PEPTIDE1{[ac].W.[O=C([C@@H]1CCCCN1[*:1])[*:2]].Q.K.I.L.D.E.H.[O=C([C@@H](N[*:1])C1CCCCC1)[*:2]].Q.R.V.W.G.[am]}$PEPTIDE1,PEPTIDE1,5:R3-9:R3$$$V2.0
SMILES: CC[C@H](C)[C@@H]1NC(=O)[C@@H](NC(=O)[C@H](CCC(N)=O)NC(=O)[C@@H]2CCCCN2C(=O)[C@H](Cc2c[nH]c3ccccc23)NC(C)=O)CCCCNC(=O)CC[C@@H](C(=O)N[C@@H](Cc2c[nH]cn2)C(=O)N[C@H](C(=O)N[C@@H](CCC(N)=O)C(=O)N[C@@H](CCCNC(=N)N)C(=O)N[C@H](C(=O)N[C@@H](Cc2c[nH]c3ccccc23)C(=O)NCC(N)=O)C(C)C)C2CCCCC2)NC(=O)[C@H](CC(=O)O)NC(=O)[C@H](CC(C)C)NC1=O
B16: SEQ ID NO: 465 (peptide)
peptide: Lauroyl-W[NMeA]QKILDEH[Chg]EDVWK-NH2
modifications: lactam 11-15, 4-8 (inferred)
B17: SEQ ID NO: 448 (peptide)
peptide: AQKILDEHGQRVWR
HELM: PEPTIDE1{[ac].[meA].Q.K.I.L.D.E.H.[O=C([C@@H](N[*:1])C1CCCCC1)[*:2]].Q.R.V.W.R.[am]}$PEPTIDE1,PEPTIDE1,4:R3-8:R3$$$V2.0
SMILES: CC[C@H](C)[C@@H]1NC(=O)[C@@H](NC(=O)[C@H](CCC(N)=O)NC(=O)[C@H](C)N(C)C(C)=O)CCCCNC(=O)CC[C@@H](C(=O)N[C@@H](Cc2c[nH]cn2)C(=O)N[C@H](C(=O)N[C@@H](CCC(N)=O)C(=O)N[C@@H](CCCNC(=N)N)C(=O)N[C@H](C(=O)N[C@@H](Cc2c[nH]c3ccccc23)C(=O)N[C@@H](CCCNC(=N)N)C(N)=O)C(C)C)C2CCCCC2)NC(=O)[C@H](CC(=O)O)NC(=O)[C@H](CC(C)C)NC1=O
B18: SEQ ID NO: 459 (peptide)
peptide: Lauroyl-W[NMeA]QKILNDH[Chg]QAVW-NH2
modifications: lactam 4-8
B19: SEQ ID NO: 463 (peptide)
peptide: WPQSILDKHGQDVW
modifications: not fully specified; Lauroyl-NH-WPQSILDK*H-Chg-QD*VW-NH2

Each binder was assayed against T1, β-catenin (UniProt P35222 134-665, limits assumed, biotinylated in the SPR and plate assays) (assay: competitive FP).
T1 construct: also called beta catenin; biotinylated β-catenin
T1 sequence (looked up): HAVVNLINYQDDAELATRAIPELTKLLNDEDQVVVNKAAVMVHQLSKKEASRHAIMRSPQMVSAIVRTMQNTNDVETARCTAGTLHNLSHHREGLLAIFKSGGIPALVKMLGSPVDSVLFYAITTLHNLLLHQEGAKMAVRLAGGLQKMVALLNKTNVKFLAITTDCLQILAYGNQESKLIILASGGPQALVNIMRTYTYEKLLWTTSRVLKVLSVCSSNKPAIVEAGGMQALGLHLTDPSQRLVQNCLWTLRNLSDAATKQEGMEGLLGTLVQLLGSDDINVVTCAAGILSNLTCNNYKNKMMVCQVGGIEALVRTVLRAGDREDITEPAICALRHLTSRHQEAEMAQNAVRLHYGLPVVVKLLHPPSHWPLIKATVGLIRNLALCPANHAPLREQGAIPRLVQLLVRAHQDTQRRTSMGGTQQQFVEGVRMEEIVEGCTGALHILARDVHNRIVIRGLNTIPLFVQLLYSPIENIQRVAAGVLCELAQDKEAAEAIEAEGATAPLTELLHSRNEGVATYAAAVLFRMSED
Procedure, shortened: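 Competitive fluorescence polarization with inhibitor peptide serially diluted from 10 nM to 30 uM; polarization read at 470 nm excitation, 520 nm emission. Experiments performed three times.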

Binder | Kd
B1 | ≤ 0.4 µM
B2 | ≤ 0.4 µM
B3 | > 0.4 µM and ≤ 1 µM
B4 | ≤ 0.4 µM
B5 | ≤ 0.4 µM
B6 | ≤ 0.4 µM
B7 | ≤ 0.4 µM
B8 | ≤ 0.4 µM
B9 | ≤ 0.4 µM
B10 | ≤ 0.4 µM
B11 | ≤ 0.4 µM
B12 | > 10 µM and ≤ 30 µM
B13 | ≤ 0.4 µM
B14 | ≤ 0.4 µM
B15 | ≤ 0.4 µM
B16 | > 0.4 µM and ≤ 1 µM
B17 | ≤ 0.4 µM
B18 | ≤ 0.4 µM
B19 | ≤ 0.4 µM

Each binder was assayed against T1, β-catenin (assay: cell-based or functional assay).

Binder | Wnt Reporter EC50
B1 | ≤ 7.5 µM
B2 | > 30 µM
B3 | > 15 µM and ≤ 22.5 µM
B4 | ≤ 7.5 µM
B5 | > 30 µM
B6 | > 7.5 µM and ≤ 15 µM
B7 | > 7.5 µM and ≤ 15 µM
B8 | ≤ 7.5 µM
B9 | > 7.5 µM and ≤ 15 µM
B10 | > 30 µM
B11 | > 22.5 µM and ≤ 30 µM
B12 | > 7.5 µM and ≤ 15 µM
B13 | > 30 µM
B14 | > 22.5 µM and ≤ 30 µM
B15 | ≤ 7.5 µM
B16 | ≤ 7.5 µM
B17 | > 30 µM
B18 | ≤ 7.5 µM
B19 | ≤ 7.5 µM
